We go through two molecules from PMC7341897 (Nature cell biology, 2019).

The target of test [1] is Survivin (UniProt O15392). Kind of test: fluorescent peptide partitioning into ISB coacervates. To be noted: reference: unmodified H3 peptide; sites T3.
Test [2] deals with INCENP^1-58-Survivin-Borealin (ISB) complex, wild type (UniProt Q9NQS7 1-58; O15392 1-142; Q53HL2 1-280). Briefly: partitioning of a fluorescent client into preformed coacervates.
The target of test [3] is ISB complex lacking amino acids 139-160 of Borealin (UniProt Q9NQS7 1-58; O15392 1-142; Q53HL2 1-280, Δ139-160). Described as above.

Regarding “histone H3 (synthetic N-terminal peptide) (from UniProt P68431) H3pT3 peptide”, in test [1], the “binding against the reference” value is “stronger”.

B1: hSgo1^1-112 labeled with CF555 (domain or fragment, human, UniProt Q5FBB7 1-112, looked up)
chain: MAKERCLKKSFQDSLEDIKKRMKEKRNKNLAEIGKRRSFIAAPCQIITNTSTLLKNYQDNNKMLVLALENEKSKVKEAQDIILQLRKECYYLTCQLYALKGKLTSQQTVEPA
modifications: CF-555 label (Mix-n-Stain CF-555 labeling kit)
Take B1: the binding result in test [2] and in test [3] was “binds” throughout.
